In the supplement of paper PMC7877785:
± gives the uncertainty stated by the source.

Test: self-splicing fitness, log relative to wild type (ln ratio); higher = more splicing; Tetrahymena group I intron in knt gene, E. coli kanamycin selection, DiMSum; sequences stand for … in CUCUCU…GGAGGGAAAAGUUAUCAGGCAUGCACCUGGUAGCUAGUCUUUAAACCAAUAGAUUGCAUCGGUUUAAAAGGCAAGACCGUCAAAUUGCGGGAAAGGGGUCAACAGCCGUUCAGUACCAAGUCUCAGGGGAAACUUUGAGAUGGCCUUGCAAAGGGUAUGGUAAUAAGCUGACGGACAUGGUCCUAACCACGCAGCCAAGUCCUAAGUCAACAGAUCUUCUGUUGAUAUGGAUGCAGUUCACAGACUAAAUGUCGGUCGGGGAAGAUGUAUUCUUCUCAUAAGAUAUAGUCGGACCUCUCCUUAAUGGGAGCUAGCGGAUGAAGUGAUGCAACACUGGAGCCGCUGGGAACUAAUUUGUAUGCGAAAGUAUAUUGAUUAGUUUUGGAGUACUCGUGGUCG
Outline: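 DiMSum derived fitness as the error-weighted combination of fold changes across replicates, kanamycin versus no kanamycin, normalised to wild type. E. coli BL21(DE3) held the library, which randomised all eight P1ex-region intron nucleotides within the knt kanamycin-resistance gene on pET-22b(+). Six replicate transformations grew overnight at 37°C or 30°C on LB agar with or without 25 μg/mL kanamycin, also containing 100 μg/mL carbenicillin, 50 μM IPTG and 0.2% rhamnose, and pooled colonies were amplicon-sequenced on an Illumina HiSeq 2500.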

Sequence	self-splicing fitness (ln) (30 °C)	self-splicing fitness (ln) (37 °C)
GCCUAGCAAUAUUACGUCGC	-1.46 ± 0.17	-1.01 ± 0.16
GCCUAGCAAUAUUACGUUCU	-1.96 ± 0.14	-0.354 ± 0.12
GCGAAGCAAUAUUACGAACU	-0.877 ± 0.16	-0.787 ± 0.17
GCGAAGCAAUAUUACGAAGU	-2.99 ± 0.35	-2.89 ± 0.26
GCGAAGCAAUAUUACGACGC	-1.98 ± 0.47	–
GCGAAGCAAUAUUACGACGG	-1.27 ± 0.21	-0.313 ± 0.33
GCGAAGCAAUAUUACGACUU	-1.4 ± 0.1	-0.741 ± 0.12
GCGAAGCAAUAUUACGAGCA	-1.52 ± 0.2	-1.63 ± 0.25
GCGAAGCAAUAUUACGAGGG	-3.77 ± 0.23	-3.27 ± 0.35
GCGAAGCAAUAUUACGAUCA	-1.82 ± 0.34	-1.01 ± 0.3
GCGAAGCAAUAUUACGAUCG	-2.49 ± 0.31	-0.964 ± 0.28
GCGAAGCAAUAUUACGCACA	-1.08 ± 0.13	-0.906 ± 0.14
GCGAAGCAAUAUUACGCACG	-2.58 ± 0.21	-3.6 ± 0.35
GCGAAGCAAUAUUACGCAGG	-3.06 ± 0.27	-2.39 ± 0.23
GCGAAGCAAUAUUACGCCUG	-2.26 ± 0.19	-2.16 ± 0.24
GCGAAGCAAUAUUACGCGGG	-2.26 ± 0.16	-2.72 ± 0.36
GCGAAGCAAUAUUACGCGGU	-2.84 ± 0.29	-1.65 ± 0.32
GCGAAGCAAUAUUACGCUAA	-2.54 ± 0.28	-2.21 ± 0.2
GCGAAGCAAUAUUACGCUGG	-1.61 ± 0.13	-2.73 ± 0.22
GCGAAGCAAUAUUACGGAAC	-2.72 ± 0.21	-2.28 ± 0.47
GCGAAGCAAUAUUACGGCAG	-1.93 ± 0.21	-2.92 ± 0.38
GCGAAGCAAUAUUACGGCUG	-1.55 ± 0.1	-0.574 ± 0.14
GCGAAGCAAUAUUACGGGCA	-1.96 ± 0.15	-0.529 ± 0.11
GCGAAGCAAUAUUACGGGUU	-2.88 ± 0.1	-1.65 ± 0.099
GCGAAGCAAUAUUACGGUGA	-2.09 ± 0.11	-1.07 ± 0.12

Sequence	self-splicing fitness (ln) (30 °C)	self-splicing fitness (ln) (37 °C)
GCGAAGCAAUAUUACGUAUG	-4.39 ± 0.26	-2.81 ± 0.16
GCGAAGCAAUAUUACGUCAU	-2.72 ± 0.15	-1.65 ± 0.14
GCGAAGCAAUAUUACGUCCU	-0.0766 ± 0.14	0.569 ± 0.17
GCGAAGCAAUAUUACGUUAU	-2.2 ± 0.1	-1.86 ± 0.11
GCGCAGCAAUAUUACGAAAA	-1.92 ± 0.21	-1.7 ± 0.21
GCGCAGCAAUAUUACGAAUG	-1.52 ± 0.13	-0.961 ± 0.14
GCGCAGCAAUAUUACGAGGU	-2.49 ± 0.2	-1.24 ± 0.25
GCGCAGCAAUAUUACGAUGC	-2.63 ± 0.17	-0.824 ± 0.17
GCGCAGCAAUAUUACGAUUG	-2.57 ± 0.073	-1.28 ± 0.1
GCGCAGCAAUAUUACGCAAC	-1.79 ± 0.14	-0.576 ± 0.18
GCGCAGCAAUAUUACGCCGC	-2.28 ± 0.35	-1.44 ± 0.49
GCGCAGCAAUAUUACGCCGG	-2.75 ± 0.25	-1.57 ± 0.31
GCGCAGCAAUAUUACGCGAU	–	-2.14 ± 0.3
GCGCAGCAAUAUUACGCGGU	-3.82 ± 0.28	-2.25 ± 0.22
GCGCAGCAAUAUUACGGACC	-1.03 ± 0.24	0.344 ± 0.38
GCGCAGCAAUAUUACGGCGG	-2.48 ± 0.13	-1.28 ± 0.15
GCGCAGCAAUAUUACGGGAU	-1.66 ± 0.1	-1.09 ± 0.12
GCGCAGCAAUAUUACGUCAG	-2.03 ± 0.14	-2.23 ± 0.18
GCGCAGCAAUAUUACGUCAU	-1.65 ± 0.084	-0.91 ± 0.086
GCGCAGCAAUAUUACGUGGA	-1.48 ± 0.098	-0.745 ± 0.098
GCGCAGCAAUAUUACGUUUA	-1.01 ± 0.1	-0.423 ± 0.1
GCGGAGCAAUAUUACGAAAC	-3.16 ± 0.31	-0.996 ± 0.24
GCGGAGCAAUAUUACGAAAU	-2.94 ± 0.5	-1.23 ± 0.42
GCGGAGCAAUAUUACGACAA	-1.13 ± 0.23	-1.7 ± 0.29
GCGGAGCAAUAUUACGAGGU	-4.1 ± 0.46	–

Sequence	self-splicing fitness (ln) (30 °C)	self-splicing fitness (ln) (37 °C)
GCGGAGCAAUAUUACGAUAC	-1.78 ± 0.18	-2.35 ± 0.33
GCGGAGCAAUAUUACGAUCU	-1.97 ± 0.25	-0.0473 ± 0.33
GCGGAGCAAUAUUACGAUGA	-3.1 ± 0.23	-2.23 ± 0.26
GCGGAGCAAUAUUACGAUGU	-2.73 ± 0.26	-1.02 ± 0.22
GCGGAGCAAUAUUACGAUUU	-2.22 ± 0.14	-0.641 ± 0.14
GCGGAGCAAUAUUACGCAUG	–	-2.8 ± 0.44
GCGGAGCAAUAUUACGCCAG	-2.22 ± 0.42	-2.26 ± 0.42
GCGGAGCAAUAUUACGCCCG	-1.19 ± 0.5	–
GCGGAGCAAUAUUACGCGAU	-2.58 ± 0.33	-2.18 ± 0.36
GCGGAGCAAUAUUACGCGGG	-3.35 ± 0.38	-1.2 ± 0.24
GCGGAGCAAUAUUACGGAGU	-2.51 ± 0.33	-2.1 ± 0.29
GCGGAGCAAUAUUACGGCGG	-3.3 ± 0.3	-2.6 ± 0.32
GCGGAGCAAUAUUACGGGGC	-2.48 ± 0.48	-1.65 ± 0.35
GCGGAGCAAUAUUACGGGUG	–	-1.36 ± 0.34
GCGGAGCAAUAUUACGGUAC	–	-2.04 ± 0.36
GCGGAGCAAUAUUACGGUCA	-2.75 ± 0.17	-1.04 ± 0.13
GCGGAGCAAUAUUACGGUUG	-3.64 ± 0.2	-1.78 ± 0.18
GCGGAGCAAUAUUACGUAAA	-3.53 ± 0.31	-1.97 ± 0.35
GCGGAGCAAUAUUACGUAGA	-3.84 ± 0.43	-2.24 ± 0.35
GCGGAGCAAUAUUACGUGCG	-3.79 ± 0.35	-2.55 ± 0.27
GCGUAGCAAUAUUACGAACA	-0.46 ± 0.22	-0.256 ± 0.24
GCGUAGCAAUAUUACGAAUA	-0.7 ± 0.12	-1.13 ± 0.11
GCGUAGCAAUAUUACGACAU	-0.276 ± 0.014	-0.025 ± 0.033
GCGUAGCAAUAUUACGAGGA	-1.09 ± 0.42	–
GCGUAGCAAUAUUACGAUAU	-0.111 ± 0.081	-0.357 ± 0.1

Sequence	self-splicing fitness (ln) (30 °C)	self-splicing fitness (ln) (37 °C)
GCGUAGCAAUAUUACGAUGG	-1.91 ± 0.17	-2.82 ± 0.31
GCGUAGCAAUAUUACGCAUA	-3.49 ± 0.2	-2.17 ± 0.21
GCGUAGCAAUAUUACGCGCC	-2.51 ± 0.35	-1.51 ± 0.45
GCGUAGCAAUAUUACGCGUA	-2.83 ± 0.46	-2.3 ± 0.37
GCGUAGCAAUAUUACGCUUG	–	-2.26 ± 0.33
GCGUAGCAAUAUUACGGAAU	-2.67 ± 0.33	-0.8 ± 0.2
GCGUAGCAAUAUUACGGCUC	0.371 ± 0.11	0.776 ± 0.12
GCGUAGCAAUAUUACGGCUG	-3.74 ± 0.42	-1.39 ± 0.49
GCGUAGCAAUAUUACGGGAC	-2.1 ± 0.15	-2.17 ± 0.2
GCGUAGCAAUAUUACGGGCC	-3.1 ± 0.32	–
GCGUAGCAAUAUUACGGGGC	-3.47 ± 0.21	-2.67 ± 0.24
GCGUAGCAAUAUUACGGGGG	-3.87 ± 0.21	-1.78 ± 0.17
GCGUAGCAAUAUUACGGGUG	-1.55 ± 0.08	-1.46 ± 0.091
GCGUAGCAAUAUUACGGUAA	-1.02 ± 0.13	-0.178 ± 0.1
GCGUAGCAAUAUUACGUAAA	-0.977 ± 0.21	-1.1 ± 0.25
GCGUAGCAAUAUUACGUACG	-3.93 ± 0.18	-2.88 ± 0.17
GCGUAGCAAUAUUACGUCUC	–	-2.6 ± 0.39
GCGUAGCAAUAUUACGUGUG	-4.47 ± 0.42	-2.77 ± 0.2
GCGUAGCAAUAUUACGUGUU	-3.07 ± 0.21	-0.761 ± 0.12
GCGUAGCAAUAUUACGUUAG	-3.92 ± 0.22	-2.47 ± 0.23
GCGUAGCAAUAUUACGUUCG	-1.48 ± 0.33	-1.52 ± 0.32
GCUAAGCAAUAUUACGAACA	-1.65 ± 0.2	-0.907 ± 0.27
GCUAAGCAAUAUUACGAAUA	-2.16 ± 0.21	-1.73 ± 0.24
